Reference: US20060008801A1 (EFFECTOR CELL INSTITUTE, published 2006)

Biological target: T1, myc-p53 (isotope-labeled myc-fused recombinant p53, made in vitro from pAS2-1-p53) (UniProt P02340 72-390, isotope-labeled)
T1 construct: Control of the coimmunoprecipitation
Test: coimmunoprecipitation of isotope-labeled recombinant proteins, SDS-PAGE
Description: In the second test, coding sequences of pAS2-1-CCR2b and pAS2-1-p53 were amplified by PCR using a T7 promoter, a 5′ primer encoding myc epitope: 5′[…] 3′ (SEQ ID NO:44) and a 3′ primer originating in p AS2-1: 5′[…]3′ (SEQ ID NO:45) to express an epitope-tagged protein. Similarly, pACT2-FROUNT was amplified by PCR using a T7 promoter, a 5′ primer encoding HA epitope: 5′[…]3′ (SEQ ID NO:46) and a 3′ primer originating in p ACT2: 3′[…]5′ (SEQ ID NO:47). Then, isotope-labeled recombinant proteins were produced in accordance with user's manual of […] Co-IP Kit (CLONTECH Laboratories, Inc.). By the coimmunoprecipitation method using these recombinant proteins, the specific binding ability between CCR2 and FROUNT was confirmed again (FIG. 2). […] Namely, coprecipitation occurred by using the HA- or Myc-specific antibody in the coexistence of myc-CCR2 and HA-FNT, the coprecipitation disappeared by adding an antigen peptide and no coprecipitation occurred in the case of myc-p53, thereby indicating specific binding ability.

T1 sequence (P02340 72-390): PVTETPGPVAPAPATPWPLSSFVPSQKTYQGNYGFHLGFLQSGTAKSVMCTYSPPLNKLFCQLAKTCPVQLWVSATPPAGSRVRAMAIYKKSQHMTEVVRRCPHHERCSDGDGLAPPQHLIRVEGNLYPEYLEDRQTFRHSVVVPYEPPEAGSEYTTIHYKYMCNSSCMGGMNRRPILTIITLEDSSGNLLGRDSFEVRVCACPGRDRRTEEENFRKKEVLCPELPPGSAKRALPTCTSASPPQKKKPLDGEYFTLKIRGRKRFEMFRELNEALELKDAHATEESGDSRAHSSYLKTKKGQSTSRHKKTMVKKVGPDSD

B1: HA-FNT (isotope-labeled HA-fused recombinant FROUNT protein, clone 19 part, made in vitro from pACT2-FROUNT) (other)
chain: LVSDRFLRDYCERGCFSDLDLIDNLGPAMMLSDRLTFLGKYREFHRMYGEKRFADAASLLLSLMTSRIAPRSFWMTLLTDALPLLEQKQVIFSAEQTYELMRCLEDLTSRRPVHGESDTEQLQDDDIETTKVEMLRLSLARNLARAIIREGSLEGS
modifications: isotope-labeled
notes: Co-IP Kit by PCR from pACT2-FROUNT; also called HA-tagged recombinant FROUNT protein; not shown: vector-encoded residues m
**Q.** Does B1 bind?
**A.** no binding
